Literature values as cited in patent publication US11207433B2, “Imaging agents and uses thereof” (Washington University, priority 2018, dated 2021).
Bridges are numbered along the chain shown (N, C = ends). Where no end group is shown, it is not given here.

Biological target: T1, NPR-C receptor (Homo sapiens, UniProt P17342)
T1 sequence (P17342 27-541): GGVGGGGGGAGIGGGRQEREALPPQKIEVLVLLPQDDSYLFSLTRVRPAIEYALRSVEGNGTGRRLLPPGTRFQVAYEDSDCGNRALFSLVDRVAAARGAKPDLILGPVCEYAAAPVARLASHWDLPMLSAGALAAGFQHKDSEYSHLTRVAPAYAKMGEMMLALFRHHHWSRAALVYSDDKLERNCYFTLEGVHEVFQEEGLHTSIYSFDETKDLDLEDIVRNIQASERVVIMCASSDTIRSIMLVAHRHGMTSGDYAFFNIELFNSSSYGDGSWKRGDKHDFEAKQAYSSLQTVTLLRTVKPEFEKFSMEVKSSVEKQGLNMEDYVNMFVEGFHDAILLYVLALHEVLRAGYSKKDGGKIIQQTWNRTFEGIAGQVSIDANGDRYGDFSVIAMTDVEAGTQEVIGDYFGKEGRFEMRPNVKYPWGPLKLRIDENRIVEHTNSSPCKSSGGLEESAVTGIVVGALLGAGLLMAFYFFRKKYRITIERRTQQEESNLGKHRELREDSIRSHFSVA
Conditions: in vivo

^64Cu-DOTA-CANF-Comb: CANF peptide functionalized polymeric nanoparticle, described in U.S. Patent Application Publication No. 2011/0300071 (RSSCFGGRIDRIGAC-NH2; disulfide 4-15; also: conjugated to polymeric nanoparticle, DOTA chelator, 64Cu label)
delay from injection to optimal PET imaging time: ~12 h
